T1: gp130/CNTF-Rα/CNTF ternary complex (human, UniProt P26441 1-200; P40189 23-619)
T1 chain 1: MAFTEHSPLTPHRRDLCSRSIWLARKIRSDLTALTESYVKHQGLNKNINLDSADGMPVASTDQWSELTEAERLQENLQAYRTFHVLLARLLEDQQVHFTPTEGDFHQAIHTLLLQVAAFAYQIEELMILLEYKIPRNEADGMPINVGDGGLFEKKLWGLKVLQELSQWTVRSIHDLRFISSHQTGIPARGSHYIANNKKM
T1 chain 2: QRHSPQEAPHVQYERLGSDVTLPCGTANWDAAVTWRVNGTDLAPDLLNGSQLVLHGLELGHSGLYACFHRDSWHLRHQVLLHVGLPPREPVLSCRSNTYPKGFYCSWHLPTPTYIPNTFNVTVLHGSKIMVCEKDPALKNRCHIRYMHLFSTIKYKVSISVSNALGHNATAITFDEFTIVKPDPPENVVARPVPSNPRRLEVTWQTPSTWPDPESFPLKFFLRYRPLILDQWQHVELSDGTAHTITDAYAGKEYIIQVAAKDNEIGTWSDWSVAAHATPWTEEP
T1 chain 3: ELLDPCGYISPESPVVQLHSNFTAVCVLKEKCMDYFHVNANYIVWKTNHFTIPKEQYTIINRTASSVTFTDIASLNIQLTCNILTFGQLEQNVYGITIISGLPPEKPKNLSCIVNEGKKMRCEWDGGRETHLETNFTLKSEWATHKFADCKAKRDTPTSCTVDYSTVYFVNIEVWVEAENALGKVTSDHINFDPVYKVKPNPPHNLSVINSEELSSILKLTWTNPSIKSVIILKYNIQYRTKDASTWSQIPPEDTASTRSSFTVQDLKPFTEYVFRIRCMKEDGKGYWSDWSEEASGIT

B1: Leukemia Inhibitory Factor Receptor LIF-R (D1-D5) (domain or fragment, human)
chain: DLKCVTNNLQVWNCSWKAPSGTGRGTDYEVCIENRSRSCYQLEKTSIKIPALSHGDYEITINSLHDFGSSTSKFTLNEQNVSLIPDTPEILNLSADFSTSTLYLKWNDRGSVFPHRSNVIWEIKVLRKESMELVKLVTHNTTLNGKDTLHHWSWASDMPLECAIHFVEIRCYIDNLHFSGLEEWSDWSPVKNISWIPDSQTKVFPQDKVILVGSDITFCCVSQEKVLSALIGHTNCPLIHLDGENVAIKIRNISVSASSGTNVVFTTEDNIFGTVIFAGYPPDTPQQLNCETHDLKEIICSWNPGRVTALVGPRATSYTLVESFSGKYVRLKRAEAPTNESYQLLFQMLPNQEIYNFTLNAHNPLGRSQSTILVNITEKVYPHTPTSFKVKDINSTAVKLSWHLPGNFAKINFLCEIEIKKSNSVQEQRNVTIKGVENSSYLVALDKLNPYTLYTFRIRCSTETFWKWSKWSNKKQHLTTEAS
B2: Ciliary Neurotrophic Factor (CNTF) (ligand, human, UniProt P26441 1-200, looked up)
chain: T1 chain 1

What was measured:
[1] = target: T1, gp130/CNTF-Rα/CNTF ternary complex; assay: ITC
[2] = target: B1; assay: ITC

Binder | stoichiometry N [1] | binding result [2]
B1 | 1 | –
B2 | – | binds

Reference: publication PMC2607196 (Molecular cell, 2008)
